Assay results taken from patent US20090137002A1 (published 2009).
One block for each binder: values may come before it.

Tests used:
[1] = target: T1, recombinant mouse EphA4-Fc fusion protein (mouse, UniProt Q03137 20-547, limits assumed); assay: ELISA: biotinylated mEphrinB2 on coated mEphA4
T1 construct: also called mEphA4; not shown: Fc part, not described
Description: (§1) A 96-well plate was coated with recombinant mEphB3, mEphA4 and hEphB4 in PBS o/n at 4° C. (5 μg/mL; 100 μL/well). The next day, the antigen was discarded and the plate blocked with 3% BSA/PBS (300 μl/well) for 2 hrs at room temperature (RT). Blocking solution was discarded and anti-EphB4 Fabs were added to the wells at a concentration of 100 μg/mL in 1% BSA/PBS and incubated for 30 min at RT. Recombinant biotinylated murine EphrinB2 was added at a final concentration of 250 ng/mL and incubated at RT for a further 30 min. The plate was washed and bound EphrinB2 was detected with Streptavidin-HRP (incubation 30 min at RT) and chemifluorescent substrate.

[2] = target: T2, recombinant human EphB4-Fc fusion protein (human, UniProt P54760 16-539); assay: ELISA: biotinylated mEphrinB2 (250 ng/mL) on coated hEphB4, with or without 100 µg/mL anti-EphB4 Fab
T2 construct: extracellular domain; also called hEphB4; hu EphB4-Fc
T2 sequence (looked up): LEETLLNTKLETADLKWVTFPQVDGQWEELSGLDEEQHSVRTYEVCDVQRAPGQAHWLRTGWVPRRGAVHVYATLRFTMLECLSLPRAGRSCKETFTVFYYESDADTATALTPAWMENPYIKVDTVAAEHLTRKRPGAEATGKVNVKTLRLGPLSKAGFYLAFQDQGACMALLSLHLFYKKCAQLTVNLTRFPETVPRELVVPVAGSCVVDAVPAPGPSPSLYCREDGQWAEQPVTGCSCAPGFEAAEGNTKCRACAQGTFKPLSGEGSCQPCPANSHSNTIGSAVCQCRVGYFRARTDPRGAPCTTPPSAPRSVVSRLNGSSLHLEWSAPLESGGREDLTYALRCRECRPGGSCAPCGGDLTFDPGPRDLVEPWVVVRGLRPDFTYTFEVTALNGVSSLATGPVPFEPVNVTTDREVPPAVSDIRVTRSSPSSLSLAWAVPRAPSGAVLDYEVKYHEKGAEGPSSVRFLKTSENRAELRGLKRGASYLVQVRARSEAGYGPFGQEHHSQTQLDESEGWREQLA
Description: as §1

[3] = target: T3, recombinant mouse EphB3-Fc fusion protein (mouse, UniProt P54754 30-537, limits assumed); assay: ELISA: biotinylated mEphrinB2 (250 ng/mL) on coated mEphB3, with or without 100 µg/mL anti-EphB4 Fab
T3 construct: also called mEphB3; not shown: Fc part, not described
T3 sequence (looked up): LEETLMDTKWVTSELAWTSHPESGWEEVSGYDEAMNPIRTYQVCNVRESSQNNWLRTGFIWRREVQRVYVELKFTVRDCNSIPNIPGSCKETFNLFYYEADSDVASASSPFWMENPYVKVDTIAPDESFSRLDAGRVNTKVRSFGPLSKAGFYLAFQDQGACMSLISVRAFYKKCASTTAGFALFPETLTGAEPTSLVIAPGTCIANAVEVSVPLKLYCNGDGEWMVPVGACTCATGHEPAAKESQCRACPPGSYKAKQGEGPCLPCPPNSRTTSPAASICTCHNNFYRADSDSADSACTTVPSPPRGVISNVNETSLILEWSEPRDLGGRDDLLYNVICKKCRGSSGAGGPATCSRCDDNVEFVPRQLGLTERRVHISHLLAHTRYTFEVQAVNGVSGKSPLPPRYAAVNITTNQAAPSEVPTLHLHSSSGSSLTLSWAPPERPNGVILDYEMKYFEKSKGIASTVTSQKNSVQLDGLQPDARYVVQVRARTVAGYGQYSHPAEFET
Description: as §1

[4] = target: T4, myc-tagged human EphB4 on transfected CHO cells (human, UniProt P54760 16-987); assay: FACS, IgG4-Pro inhibition of murine ephrin-B2 binding to CHO-EphB4 cells; end tied by Table 11 (11.55)
T4 construct: whole, on cells; also called CHO-EphB4; CHO-hEphB4; not shown: myc tag
T4 sequence (looked up): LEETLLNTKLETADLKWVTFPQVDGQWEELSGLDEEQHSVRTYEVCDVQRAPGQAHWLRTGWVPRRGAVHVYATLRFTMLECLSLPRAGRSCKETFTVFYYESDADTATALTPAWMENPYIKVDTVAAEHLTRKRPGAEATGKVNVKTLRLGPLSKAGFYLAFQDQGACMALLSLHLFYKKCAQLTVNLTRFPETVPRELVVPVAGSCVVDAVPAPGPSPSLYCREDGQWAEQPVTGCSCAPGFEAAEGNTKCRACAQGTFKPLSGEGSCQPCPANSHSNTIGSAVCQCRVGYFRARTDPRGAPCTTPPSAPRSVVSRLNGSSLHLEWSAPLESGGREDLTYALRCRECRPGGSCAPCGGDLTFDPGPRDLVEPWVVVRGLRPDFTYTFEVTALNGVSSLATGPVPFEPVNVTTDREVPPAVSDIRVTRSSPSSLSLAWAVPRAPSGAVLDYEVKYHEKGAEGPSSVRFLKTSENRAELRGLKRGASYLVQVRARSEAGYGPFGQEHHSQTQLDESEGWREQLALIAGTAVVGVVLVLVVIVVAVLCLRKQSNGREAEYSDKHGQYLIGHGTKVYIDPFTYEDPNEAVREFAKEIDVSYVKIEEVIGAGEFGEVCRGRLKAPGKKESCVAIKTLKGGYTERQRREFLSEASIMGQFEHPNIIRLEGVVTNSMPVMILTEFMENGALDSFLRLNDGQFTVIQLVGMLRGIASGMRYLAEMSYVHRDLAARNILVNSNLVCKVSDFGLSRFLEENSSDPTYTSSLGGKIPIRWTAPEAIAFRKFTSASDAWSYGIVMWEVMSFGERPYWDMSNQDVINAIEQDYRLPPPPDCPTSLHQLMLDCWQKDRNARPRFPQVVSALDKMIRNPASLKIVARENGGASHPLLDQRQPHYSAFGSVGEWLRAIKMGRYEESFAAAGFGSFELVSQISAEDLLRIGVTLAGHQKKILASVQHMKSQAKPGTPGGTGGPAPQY
Description: (§2) C50 values (i.e. IgG4-Pro inhibition of ligand binding) were determined in FACS. […] Receptor-bound ephrin-B2 was detected via biotinylated anti-mouse ephrin-B2 antibody (R&D Systems) and streptavidin-PE. The IC50 values of the IgGs, determined in two independent experiments, are given in Table 11 and are compared to the IC50 values of the corresponding Fab. […] Again, as already seen for the Fab, the IC50 values of the MOR07310 pool were slightly better than those of the MOR03641 pool.

[5] = target: T4, myc-tagged human EphB4 on transfected …; assay: FACS, IgG4-Pro inhibition of murine ephrin-B2 binding to CHO-EphB4 cells
Description: as §2

[6] = target: T4, myc-tagged human EphB4 on transfected …; assay: FACS titration of IgG4-Pro on CHO-EphB4 cells
Description: (§3) For the determination of EC50 values, the 12 final IgGs were analyzed on CHO-EphB4 cells in FACS. The EC50 values of the IgGs, determined in two independent experiments, are given in Table 11 and are compared to the EC50 values of the corresponding Fab. […] Again, as already seen for the Fab, the EC50 values of the MOR07310 pool were slightly better than those of the MOR03641 pool.

[7] = target: T4, myc-tagged human EphB4 on transfected …; assay: FACS titration of IgG4-Pro on CHO-EphB4 cells; end tied by Table 11 (4.83)
Description: as §3

[8] = target: T4, myc-tagged human EphB4 on transfected …; assay: FACS competition on CHO-EphB4 cells, competitor murine ephrin-B2
Description: as §2

[9] = target: T4, myc-tagged human EphB4 on transfected …; assay: FACS titration of IgG4-Pro on CHO-EphB4 cells; n = 1
Description: as §3

T1 sequence (Q03137 20-547 limits assumed): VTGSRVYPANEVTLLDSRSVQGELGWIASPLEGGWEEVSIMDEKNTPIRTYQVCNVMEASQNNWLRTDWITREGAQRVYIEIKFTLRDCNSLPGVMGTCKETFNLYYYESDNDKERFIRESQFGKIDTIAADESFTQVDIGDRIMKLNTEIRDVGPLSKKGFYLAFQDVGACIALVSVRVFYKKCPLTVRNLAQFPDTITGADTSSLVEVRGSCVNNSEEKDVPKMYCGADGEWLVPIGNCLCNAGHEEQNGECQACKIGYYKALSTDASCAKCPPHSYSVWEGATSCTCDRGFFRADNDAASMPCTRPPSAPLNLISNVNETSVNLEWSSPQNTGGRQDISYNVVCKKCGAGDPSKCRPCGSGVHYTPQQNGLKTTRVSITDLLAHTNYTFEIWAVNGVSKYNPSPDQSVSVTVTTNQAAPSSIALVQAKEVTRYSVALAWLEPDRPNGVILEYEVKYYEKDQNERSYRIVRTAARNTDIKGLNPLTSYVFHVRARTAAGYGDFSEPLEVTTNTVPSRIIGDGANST

binding result [1]: no binding (tested: 250 ng/mL)
binding result [2]: binds
binding result [3]: binds
B1: recombinant murine EphrinB2 (extracellular domain) (ligand, mouse, UniProt P52800 29-232, looked up)
chain: RSIVLEPIYWNSSNSKFLPGQGLVLYPQIGDKLDIICPKVDSKTVGQYEYYKVYMVDKDQADRCTIKKENTPLLNCARPDQDVKFTIKFQEFSPNLWGLEFQKNKDYYIISTSNGSLEGLDNQEGGVCQTRAMKILMKVGQDASSAGSARNHGPTRRPELEAGTNGRSSTTSPFVKPNPGSSTDGNSAGHSGNNLLGSEVALFA
modifications: biotinylated in Examples 8 and 10-12
notes: extracellular domain; also called mEphrinB2; recombinant biotinylated murine EphrinB2

IC50 [4]: 11.6 nM
IC50 [5]: 11.6 nM
EC50 [6]: 4.83 nM
EC50 (read off the curve) [6]: ~5 nM
EC50 [7]: 4.8 nM
IC50 (read off the curve) [8]: ~20 nM
B2: MOR07729 IgG4-Pro (antibody, V domains shown)
VH: QVELVQSGAEVKKPGSSVKVSCKASGGTFSTYAISWVRQAPGQGLEWMGRIIPIFGTANYAQKFQGRVTITADESTSTAYMELSSLRSEDTAVYYCARSSYTILTTYYNYNAMDNWGQGTLVTVSS
VL: DIQMTQSPSSLSASVGDRVTITCRASQNINNFLNWYQQKPGKAPKLLIYGSSILQSGVPSRFSGSGSGTDFTLTISSLQPEDFATYYCQQYDFYLSGTFGQGTKVEIKR
notes: Fab MOR07729 converted into human IgG4-Pro format

IC50 [5]: 0.11 nM
IC50 (read off the curve) [8]: ~0.1 nM
EC50 [9]: 0.3 nM
B3: MOR07720 IgG4-Pro (antibody, V domains shown)
VH: QVQLVESGGGLVQPGGSLRLSCAASGFTFNNAWMSWVRQAPGKGLEWVSQIEAKQPGGATSYAASVKGRFTISRDNSKNTLYLQMNSLRAEDTAVYYCARKGMSFYNNKYAKSMFDLWGQGTLVTVSS
VL: DIELTQPPSVSVAPGQTARISCSGDNLGKKYVHWYQQKPGQAPVLVIYYDSKRPSGIPERFSGSNSGNTATLTISGTQAEDEADYYCSAWTTTMMHIVFGGGTKLTVLG
notes: Fab MOR07720 converted into human IgG4-Pro format
